This is an account of results in PMC2908255.

The assay has as its target Erk2 (UniProt P63086). Kind of assay: ITC. A general note: Isothermal titration calorimetry measures the heat released or taken up as one component is titrated into another.

For the substance “HePTP 15-339 (includes the KIM) (domain or fragment)”, the Kd (commonly a measure of binding affinity in units of concentration) was 549 nM, the dH was -10.8 kcal/mol and the stoichiometry N (usually a count of units in the complex or per binding partner) turned out to be 0.95.
